# Test results: US20130243795A1 (Janssen / Centocor, published 2013)
# Substitutions are numbered along the chain they refer to.
# B1: M159 (antibody, human IgG4, V domains shown)
# VH: QVQLVQSGAEVKKPGASVKVSCKASGYAFSSSWMNWVRQAPGQGLEWMGRIYPGDGDTNYNGKFKGRVTMTRDTSTSTVYMELSSLRSEDTAVYYCARSDYYGDYGFAYWGQGTLVTVSS
# VL: DIQMTQSPSSLSASVGDRVTITCKASQSVDYAGDSYMNWYQQKPGKAPKLLIYAASNLESGVPSRFSGSGSGTDFTLTISSLQPEDFATYYCQQSNEDPYTFGQGTKVEIK
# notes: also called H25,L220; parental mAb
# B2: M163 (antibody, human IgG4, V domains shown)
# VH: B1 VH with P53S
# VL: B1 VL with A32W, G33S, Y36F
# notes: also called H196,L223
# B3: M150 (antibody, human IgG4, V domains shown)
# VH: B1 VH
# VL: B1 VL with A32F, Y36L
# notes: also called H25,L218
# B4: M151 (antibody, human IgG4, V domains shown)
# VH: B1 VH
# VL: B1 VL with T20A, A32Y, G33N, D34S, Y36F
# notes: also called H25,L224
# B5: M165 (antibody, human IgG4, V domains shown)
# VH: B1 VH with P53S
# VL: B1 VL with A32F, G33R, D34T, Y36F
# notes: also called H196,L221
# B6: M154 (antibody, human IgG4, V domains shown)
# VH: B1 VH
# VL: B1 VL with A32F, G33R, D34T, Y36F
# notes: also called H25,L221
# B7: M164 (antibody, human IgG4, V domains shown)
# VH: B1 VH with P53S
# VL: B1 VL with A32V, D34T, Y36F
# notes: also called H196,L222
# B8: M152 (antibody, human IgG4, V domains shown)
# VH: B1 VH
# VL: B1 VL with A32W, G33S, Y36F
# notes: also called H25,L223
# B9: M161 (antibody, human IgG4, V domains shown)
# VH: B1 VH with P53S
# VL: B1 VL with A32F, Y36L
# notes: also called H196,L218
# B10: M162 (antibody, human IgG4, V domains shown)
# VH: B1 VH with P53S
# VL: B1 VL with T20A, A32Y, G33N, D34S, Y36F
# notes: also called H196,L224
# B11: M153 (antibody, human IgG4, V domains shown)
# VH: B1 VH
# VL: B1 VL with A32V, D34T, Y36F
# notes: also called H25,L222
# B12: M669 (antibody, V domains shown)
# VH: B1 VH with P53S, G56A, G62Q
# VL: B1 VL with D34E, Y36F
# notes: isotype not restated (path 2); also called H256,L266
# B13: M670 (antibody, V domains shown)
# VH: EVQLVQSGAEVKKPGESLKISCKGSGYAFSSSWMNWVRQMPGKGLEWMGRIYSGDADTNYAQKFKGQVTISADKSISTAYLQWSSLKASDTAMYYCARSDYYGDYGFAYWGQGTLVTVSS
# VL: B1 VL with D34E, Y36F
# notes: isotype not restated (path 2); also called H257,L266
# B14: M672 (antibody, V domains shown)
# VH: B1 VH with P53S, G56A, N61A, G62Q
# VL: B1 VL with G33H, D34E, Y36F
# notes: isotype not restated (path 2); also called H255,L217
# B15: M673 (antibody, V domains shown)
# VH: B1 VH with P53S, G56A, G62Q
# VL: B1 VL with G33H, D34E, Y36F
# notes: isotype not restated (path 2); also called H256,L217
# B16: M69-derived Fab with VH H239 (Fab, V domains shown)
# VH: B13 VH with S53A, A56G, A61S, Q62P, K63S, K65Q
# VL: DIVMTQSPDSLAVSLGERATINCKASQSVDYAGDSYMNWYQQKPGQPPKLLIYAASNLESGVPDRFSGSGSGTDFTLTISSLQAEDVAVYYCQQSNEDPYTFGQGTKLEIK
# notes: clone of library C27H28L2; pairing with parent L35 inferred
# B17: M69-derived Fab with VH H241 (Fab, V domains shown)
# VH: B13 VH with S53G, G54R, A56G, A61S, Q62P, K63S, K65Q
# VL: B16 VL
# notes: as for B16
# B18: M69-derived Fab with VL L260 (Fab, V domains shown)
# VH: B13 VH with S53P, A56G, A61S, Q62P, K63S, K65Q
# VL: B16 VL with Y31W, D34H, Y36W, A54T
# notes: clone of library C27L35L2; pairing with parent H28 inferred
# B19: M69-derived Fab with VL L255 (Fab, V domains shown)
# VH: B13 VH with S53P, A56G, A61S, Q62P, K63S, K65Q
# VL: B16 VL with Y36F
# notes: clone recovered from the CDR-L1 libraries of L35; pairing with the parent H28 heavy chain inferred
# B20: M69-derived Fab with VL L256 (Fab, V domains shown)
# VH: B13 VH with S53P, A56G, A61S, Q62P, K63S, K65Q
# VL: B16 VL with Y36W, A54V
# notes: as for B18
# B21: M69-derived Fab with VL L261 (Fab, V domains shown)
# VH: B13 VH with S53P, A56G, A61S, Q62P, K63S, K65Q
# VL: B16 VL with D34S, Y36F, A54E
# notes: as for B18
# B22: M69-derived Fab with VH H236 (Fab, V domains shown)
# VH: B13 VH with S53P, A56G, A61S, Q62P, K63S, K65Q, S99A, A108G
# VL: B16 VL
# notes: clone of library C27H28L3; pairing with the parent L35 light chain is inferred from the library design
# B23: M69-derived Fab with VH H245 (Fab, V domains shown)
# VH: B13 VH with G8V, G54R, A56G, A61S, Q62P, K63S, K65Q
# VL: B16 VL
# notes: as for B16
# B24: M69-derived Fab with VH H244 (Fab, V domains shown)
# VH: B13 VH with A56G, A61S, Q62P, K63S, K65Q
# VL: B16 VL
# notes: as for B16
# B25: M69-derived Fab with VH H237 (Fab, V domains shown)
# VH: B13 VH with Y52F, S53V, G54R, A56G, A61S, Q62P, K63S, K65Q
# VL: B16 VL
# notes: as for B16
# B26: M69-derived Fab with VH H240 (Fab, V domains shown)
# VH: B13 VH with S53A, G54R, A56G, A61S, Q62P, K63S, K65Q
# VL: B16 VL
# notes: as for B16
# B27: M69-derived Fab with VH H238 (Fab, V domains shown)
# VH: B13 VH with S53V, A56G, A61S, Q62P, K63S, K65Q
# VL: B16 VL
# notes: as for B16
# B28: M69-derived Fab with VL L257 (Fab, V domains shown)
# VH: B13 VH with S53P, A56G, A61S, Q62P, K63S, K65Q
# VL: B16 VL with Y36W, A54T, Q83L
# notes: as for B18
# B29: M69-derived Fab with VH H243 (Fab, V domains shown)
# VH: B13 VH with S53G, A56G, A61S, Q62P, K63S, K65Q
# VL: B16 VL
# notes: as for B16
# B30: M69-derived Fab with VH H242 (Fab, V domains shown)
# VH: B13 VH with S53A, G54N, A56G, A61S, Q62P, K63S, K65Q
# VL: B16 VL
# notes: as for B16
# Molecular target: T1, Human CD27 ECD truncated (ECD 1-121, cleavage site, His6) (human)
# T1 construct: also called human CD27 ECD with His Tag; CD27-His
# T1 chain: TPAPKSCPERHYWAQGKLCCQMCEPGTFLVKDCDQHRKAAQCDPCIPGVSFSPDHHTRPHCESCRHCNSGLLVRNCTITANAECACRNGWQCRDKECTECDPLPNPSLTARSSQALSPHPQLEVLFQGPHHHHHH
# Test: ProteOn SPR, culture supernatants
row,Binder,Kd [nM]
1,B1,2.23
2,B2,0.3
3,B3,4.04
4,B4,1.07
5,B5,0.18
6,B6,1.56
7,B7,0.27
8,B8,1.54
9,B9,1.34
10,B10,0.43
11,B11,1.41

# Molecular target: T1, Human CD27 ECD truncated (ECD 1-121, …)
# Test: ProteOn SPR, purified mAb, CD27-His
# Description: Purified mAbs were analyzed for affinity to CD27-His on ProteOn.
Binder,Kd [nM],koff [s⁻¹],kon [M⁻¹ s⁻¹]
B12,0.058,0.000145,2.49e+06
B13,0.065,0.000113,1.73e+06
B14,0.144,0.000264,1.83e+06
B15,0.1,0.000189,1.89e+06

# Molecular target: T2, Human CD27 ECD (ECD 1-173, His6) (human, UniProt P26842 21-193, biotinylated on amine residues (NHS-ester) where used biotinylated)
# T2 construct: also called biotinylated human CD27 ECD
# Test: Fab ELISA; Fab captured by anti-Fd, biotinylated CD27 ECD at 0.2 nM
# Description: For follow-up screening, DNA was prepared from glycerol stocks of phage panning rounds and the pIX gene was excised by NheI/SpeI digestion. After ligation, the DNA was transformed into TG-1 cells and grown on LB/Agar plates overnight. The next day, colonies were picked, grown overnight, and the cultures used for (i) colony PCR and sequencing of the V-regions, and (ii) induction of Fab production. For Fab production, the overnight culture was diluted 10-100 fold in new media and grown for 5-6 hours at 37 degrees C. Fab production was induced by the addition of fresh media containing IPTG and the cultures were grown overnight at 30 degrees C. The following day, the cultures were spun down and the supernatants, containing the soluble Fab proteins, were used for Fab ELISA. For the ELISA, the soluble Fab proteins were captured onto plates by a polyclonal anti-Fd(CH1) antibody. After washing and blocking, biotinylated human CD27 ECD was added at 0.2 nM concentration. This concentration enables ranking of the Fab variants, defined as percent binding of the parent, in which the parent Fab, present as a control in all plates, is defined as 100% binding. The biotinylated CD27 ECD was detected by HRP-conjugated streptavidin and chemiluminescence read in a plate reader. At this concentration of CD27, ranking of the Fab variants, normalized to the parent Fab, is possible.
row,Binder,percent binding of the parent [%]
1,B16,≥ 100
2,B17,≥ 100
3,B18,≥ 100
4,B19,≥ 100
5,B20,≥ 100
6,B21,≥ 100
7,B22,≥ 100
8,B23,≥ 100
9,B24,≥ 100
10,B25,≥ 100
11,B26,≥ 100
12,B27,≥ 100
13,B28,≥ 100
14,B29,≥ 100
15,B30,≥ 100
